For 15 molecules, IC50 results are on record in patent US20240116985A1 (published 2024).

Starred links: 1 amine or outer side, 2 acyl side, 3 side chain; linkers in the order of their positions; H or OH if unused. Positions of bridges follow the written chain, without caps; N, C: chain ends. Non-standard residues stand in square brackets, D forms with d. Primed or numbered codes have the meaning given here. PyrS2″ = (S)-3-amino-1-((pent-4-en-1-yloxy)carbonyl)pyrrolidine-3-carboxylic acid (stapling residue), C=CCCCOC(=O)N1CC[C@@](N[*:1])(C(=O)[*:2])C1; B5(4) = 2,2-bis(4-pentenyl)glycine = 2-amino-2-(pent-4-en-1-yl)hept-6-enoic acid (stitching residue), C=CCCCC(CCCC=C)(N[*:1])C(=O)[*:2]; PyrS2 = (S)-3-amino-1-((pent-4-en-1-yloxy)carbonyl)pyrrolidine-3-carboxylic acid, C=CCCCOC(=O)N1CC[C@@](N[*:1])(C(=O)[*:2])C1; B5 = 2-amino-2-(pent-4-en-1-yl)hept-6-enoic acid, C=CCCCC(CCCC=C)(N[*:1])C(=O)[*:2]; Bta = N[C@@H](Cc1csc2ccccc12)C(=O)O; Lys(iPr) = CC(C)NCCCC[C@H](N)C(=O)O; αAllylPro = C=CC[C@@]1(C(=O)O)CCCN1; S8 = C=CCCCCCC[C@](C)(N)C(=O)O

First the molecules themselves.
B1: I-617 (peptide)
peptide: XDLXDEAAFTXFXH
modifications: not fully specified; N-terminal Ac; PL3 (pos 1), B5 (pos 4), S8 (pos 11) stapled (PL3-B5 and B5-S8); BztA (pos 13); C-terminal NH2
notes: Stapled peptide; also called Ac-PL3-Asp-Leu-B5-Asp-Glu-Ala-Ala-Phe-Thr-S8-Phe-BztA-His-NH2
B2: I-623 (peptide)
peptide: XDLXDEAAFTXFXQ
modifications: not fully specified; N-terminal Ac; PL3 (pos 1), B5 (pos 4), S8 (pos 11) stapled (PL3-B5 and B5-S8); BztA (pos 13); C-terminal NH2
notes: Stapled peptide; also called Ac-PL3-Asp-Leu-B5-Asp-Glu-Ala-Ala-Phe-Thr-S8-Phe-BztA-Gln-NH2
B3: I-622 (peptide)
peptide: XDLXDEAAFTXFXQ
modifications: not fully specified; N-terminal Ac; PL3 (pos 1), B5 (pos 4), S8 (pos 11) stapled (PL3-B5 and B5-S8); BztA (pos 13); C-terminal NH2
notes: as for B2
B4: I-618 (peptide)
peptide: XDLXDEAAFTXFXH
modifications: not fully specified; N-terminal Ac; PL3 (pos 1), B5 (pos 4), S8 (pos 11) stapled (PL3-B5 and B5-S8); BztA (pos 13); C-terminal NH2
notes: as for B1
B5: I-602 (peptide)
peptide: XDIXDEAAFQXFXQ
modifications: N-terminal 2PyPrpc cap; PL3 (pos 1), B5 (pos 4), S8 (pos 11) stapled (PL3-B5 and B5-S8); BztA (pos 13); C-terminal NH2
notes: Stapled peptide; also called 2PyPrpc-PL3-Asp-Ile-B5-Asp-Glu-Ala-Ala-Phe-Gln-S8-Phe-BztA-Gln-NH2
B6: I-601 (peptide)
peptide: XDIXDEAAFQXFXQ
modifications: N-terminal Bnc cap; PL3 (pos 1), B5 (pos 4), S8 (pos 11) stapled (PL3-B5 and B5-S8, olefin metathesis); BztA (pos 13); C-terminal NH2
notes: Stapled peptide; also called Bnc-PL3-Asp-Ile-B5-Asp-Glu-Ala-Ala-Phe-Gln-S8-Phe-BztA-Gln-NH2
B7: I-603 (peptide)
peptide: Ac-[αAllylPro]DI[B5]DQAAFQ[S8]F[Bta]Q-NH2
modifications: staple 1-4, 4-11
notes: Stapled peptide; also called Ac-PL3-Asp-Ile-B5-Asp-Gln-Ala-Ala-Phe-Gln-S8-Phe-BztA-Gln-NH2
B8: I-614 (peptide)
peptide: XDIXDRAAFQXFXQ
modifications: not fully specified; N-terminal Ac; PL3 (pos 1), B5 (pos 4), S8 (pos 11) stapled (PL3-B5 and B5-S8); BztA (pos 13); C-terminal NH2
notes: Stapled peptide; also called Ac-PL3-Asp-Ile-B5-Asp-Arg-Ala-Ala-Phe-Gln-S8-Phe-BztA-Gln-NH2
B9: I-613 (peptide)
peptide: XDIXDRAAFQXFXQ
modifications: not fully specified; N-terminal Ac; PL3 (pos 1), B5 (pos 4), S8 (pos 11) stapled (PL3-B5 and B5-S8); BztA (pos 13); C-terminal NH2
notes: as for B8
B10: I-1580 (peptide)
peptide: Ac-[αAllylPro]NF[B5(4)]DT[Lys(iPr)]AFL[PyrS2″]F[Bta]Q-NH2
modifications: staple 1-4, 4-11
B11: I-1582 (peptide)
peptide: Ac-[αAllylPro]NL[B5(4)]DT[Lys(iPr)]AFL[PyrS2″]F[Bta]Q-NH2
modifications: staple 1-4, 4-11
B12: I-1584 (peptide)
peptide: Ac-[αAllylPro]NQ[B5(4)]DT[Lys(iPr)]AFL[PyrS2″]F[Bta]Q-NH2
modifications: staple 1-4, 4-11
B13: I-1581 (peptide)
peptide: Ac-[αAllylPro]NW[B5(4)]DT[Lys(iPr)]AFL[PyrS2″]F[Bta]Q-NH2
modifications: staple 1-4, 4-11
B14: I-1591 (peptide)
peptide: Ac-[αAllylPro]N[Lys(iPr)][B5(4)]DT[Lys(iPr)]AFL[PyrS2]F[Bta]Q-NH2
modifications: staple 1-4, 4-11
B15: I-1583 (peptide)
peptide: Ac-[αAllylPro]NS[B5(4)]DT[Lys(iPr)]AFL[PyrS2″]F[Bta]Q-NH2
modifications: staple 1-4, 4-11

The first assay concerns the target T1, full-length beta-Catenin (Uniprot ID P35222) (Homo sapiens (Human), UniProt P35222 1-781).
T1 construct: The assay text says full-length; also called bCat; B-Catenin
T1 sequence: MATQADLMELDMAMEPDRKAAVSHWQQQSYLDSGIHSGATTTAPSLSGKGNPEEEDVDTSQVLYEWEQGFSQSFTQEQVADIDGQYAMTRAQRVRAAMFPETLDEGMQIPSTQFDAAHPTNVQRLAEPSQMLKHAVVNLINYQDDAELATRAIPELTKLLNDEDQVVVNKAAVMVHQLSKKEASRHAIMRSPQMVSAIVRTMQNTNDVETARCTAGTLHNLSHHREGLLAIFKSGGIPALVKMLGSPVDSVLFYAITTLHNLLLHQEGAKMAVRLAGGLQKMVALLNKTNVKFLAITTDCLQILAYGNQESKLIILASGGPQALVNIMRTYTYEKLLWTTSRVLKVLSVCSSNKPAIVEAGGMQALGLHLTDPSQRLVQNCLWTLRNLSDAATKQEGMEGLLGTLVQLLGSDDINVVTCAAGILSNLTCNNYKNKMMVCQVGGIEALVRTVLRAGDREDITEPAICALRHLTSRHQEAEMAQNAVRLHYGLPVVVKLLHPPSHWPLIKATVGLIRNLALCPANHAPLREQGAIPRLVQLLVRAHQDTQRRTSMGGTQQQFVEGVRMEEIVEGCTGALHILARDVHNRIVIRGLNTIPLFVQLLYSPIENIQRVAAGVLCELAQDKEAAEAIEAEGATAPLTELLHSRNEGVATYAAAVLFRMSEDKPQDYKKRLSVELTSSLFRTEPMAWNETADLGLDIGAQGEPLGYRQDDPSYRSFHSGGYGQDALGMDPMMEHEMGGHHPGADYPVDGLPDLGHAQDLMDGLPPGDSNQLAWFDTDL
Nature of the assay: fluorescence polarization competition; full-length beta-catenin with 5FAM-TCF4(10-53) probe as competitor. Summed up: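 Data fitted to 1:1 binding model with hill slope from duplicate reads taken after 60 minutes at 20° C. in the dark.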
The term IC50 denotes the point on the concentration scale where inhibition reaches its midpoint. A high value points to a need for much substance. The molecule B1 showed an IC50 of 253 nM.
In turn, B2 came in with a half-maximal inhibitory concentration (IC50) of 103 nM.
Regarding B3, the IC50 came out at 230 nM.
Still for that read-out and setting: under B4 stands 135 nM.
Same read-out and setting: under B5 stands 3150 nM; under B6, 419 nM; under B7, 392 nM.
The same measure, in the same setting: the same measure for B8: 1140 nM; for B9: 1630 nM.

The next assay concerns the target T2, full-length beta-Catenin (Uniprot ID P35222) (Homo sapiens (Human), UniProt P35222 2-781).
T2 construct: also called bCat; B-Catenin
T2 sequence: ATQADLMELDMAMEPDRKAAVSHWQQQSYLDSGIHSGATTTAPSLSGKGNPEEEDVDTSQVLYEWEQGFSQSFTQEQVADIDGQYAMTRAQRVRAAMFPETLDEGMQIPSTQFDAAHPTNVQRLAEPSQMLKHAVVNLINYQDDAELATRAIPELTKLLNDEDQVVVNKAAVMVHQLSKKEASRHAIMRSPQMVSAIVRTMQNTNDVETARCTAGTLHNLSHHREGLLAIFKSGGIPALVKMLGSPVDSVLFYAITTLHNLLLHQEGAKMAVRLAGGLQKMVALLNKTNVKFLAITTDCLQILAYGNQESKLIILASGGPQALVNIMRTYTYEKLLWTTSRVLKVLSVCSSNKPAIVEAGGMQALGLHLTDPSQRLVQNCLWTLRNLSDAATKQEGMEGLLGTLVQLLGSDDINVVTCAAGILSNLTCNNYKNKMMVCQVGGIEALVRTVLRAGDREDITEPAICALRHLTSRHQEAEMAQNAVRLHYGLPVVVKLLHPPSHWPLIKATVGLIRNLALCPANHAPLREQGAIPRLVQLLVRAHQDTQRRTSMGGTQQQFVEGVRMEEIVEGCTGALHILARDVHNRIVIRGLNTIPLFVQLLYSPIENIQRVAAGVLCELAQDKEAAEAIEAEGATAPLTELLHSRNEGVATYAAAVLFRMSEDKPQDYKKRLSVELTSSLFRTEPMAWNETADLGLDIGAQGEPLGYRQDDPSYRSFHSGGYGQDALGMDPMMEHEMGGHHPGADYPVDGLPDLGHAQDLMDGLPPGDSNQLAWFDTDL
Nature of the assay: fluorescence polarization competition; full-length beta-catenin, 5FAM-TCF4(10-53) probe as competitor. The method, then: The plate was incubated protected from light for 60 minutes at 20° C. prior to read. Reads were performed on a CLARIOstar plate reader (BMG Labtech) in duplicate, and data were fitted to a 1:1 binding model with hill slope using an in-house script. All provided concentrations are final concentrations.
On the technique in general: Polarisation of emitted light reports the rotation of a fluorescent probe.
Molecule B10 gave an IC50 of 1430 nM.
Regarding B11, the IC50 is 1220 nM.
The same measure, in the same setting: under B12 stands 2440 nM; under B13, 10000 nM; under B14, 3110 nM.
Still for that read-out and setting: the same measure for B15: 3420 nM.
